Laboratory results: article PMC6359974

Target: polymerized MTs of COV362 lysate (taxol-treated) (human (endogenous in COV362)) (UniProt P68363)
Test: co-sedimentation

Sequence of UniProt P68363 (P68363 whole entry, chain 1 of 2): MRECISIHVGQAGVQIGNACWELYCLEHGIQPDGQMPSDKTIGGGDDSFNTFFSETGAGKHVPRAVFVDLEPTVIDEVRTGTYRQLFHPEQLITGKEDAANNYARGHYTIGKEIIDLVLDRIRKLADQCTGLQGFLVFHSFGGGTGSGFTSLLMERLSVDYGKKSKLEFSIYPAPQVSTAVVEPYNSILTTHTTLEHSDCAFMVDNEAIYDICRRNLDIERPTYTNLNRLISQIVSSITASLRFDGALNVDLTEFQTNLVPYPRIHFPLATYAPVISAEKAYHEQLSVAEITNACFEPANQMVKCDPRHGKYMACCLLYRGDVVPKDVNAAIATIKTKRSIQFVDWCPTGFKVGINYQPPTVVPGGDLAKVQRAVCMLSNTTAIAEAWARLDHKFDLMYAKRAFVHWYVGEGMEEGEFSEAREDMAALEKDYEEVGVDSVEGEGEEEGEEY
Sequence of UniProt P68363 (P07437 whole entry, chain 2 of 2, further chain): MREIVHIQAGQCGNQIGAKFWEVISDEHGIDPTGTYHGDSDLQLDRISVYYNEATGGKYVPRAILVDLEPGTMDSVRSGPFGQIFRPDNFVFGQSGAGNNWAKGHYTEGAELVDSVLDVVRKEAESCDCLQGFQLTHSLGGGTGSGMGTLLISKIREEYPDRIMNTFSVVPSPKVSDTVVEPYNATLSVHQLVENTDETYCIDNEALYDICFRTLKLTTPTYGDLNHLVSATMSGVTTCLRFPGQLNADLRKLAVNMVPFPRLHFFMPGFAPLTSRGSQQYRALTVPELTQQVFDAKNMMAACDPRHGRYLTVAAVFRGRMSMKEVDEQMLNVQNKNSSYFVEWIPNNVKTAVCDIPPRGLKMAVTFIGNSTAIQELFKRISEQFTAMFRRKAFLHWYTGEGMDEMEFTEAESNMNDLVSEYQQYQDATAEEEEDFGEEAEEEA

percent of UNC-45A bound to MTs: 100%
B1: UNC-45A (endogenous, COV362 cells) (natural protein)
chain: MTVSGPGTPEPRPATPGASSVEQLRKEGNELFKCGDYGGALAAYTQALGLDATPQDQAVLHRNRAACHLKLEDYDKAETEASKAIEKDGGDVKALYRRSQALEKLGRLDQAVLDLQRCVSLEPKNKVFQEALRNIGGQIQEKVRYMSSTDAKVEQMFQILLDPEEKGTEKKQKASQNLVVLAREDAGAEKIFRSNGVQLLQRLLDMGETDLMLAALRTLVGICSEHQSRTVATLSILGTRRVVSILGVESQAVSLAACHLLQVMFDALKEGVKKGFRGKEGAIIVDPARELKVLISNLLDLLTEVGVSGQGRDNALTLLIKAVPRKSLKDPNNSLTLWVIDQGLKKILEVGGSLQDPPGELAVTANSRMSASILLSKLFDDLKCDAERENFHRLCENYIKSWFEGQGLAGKLRAIQTVSCLLQGPCDAGNRALELSGVMESVIALCASEQEEEQLVAVEALIHAAGKAKRASFITANGVSLLKDLYKCSEKDSIRIRALVGLCKLGSAGGTDFSMKQFAEGSTLKLAKQCRKWLCNDQIDAGTRRWAVEGLAYLTFDADVKEEFVEDAAALKALFQLSRLEERSVLFAVASALVNCTNSYDYEEPDPKMVELAKYAKQHVPEQHPKDKPSFVRARVKKLLAAGVVSAMVCMVKTESPVLTSSCRELLSRVFLALVEEVEDRGTVVAQGGGRALIPLALEGTDVGQTKAAQALAKLTITSNPEMTFPGERIYEVVRPLVSLLHLNCSGLQNFEALMALTNLAGISERLRQKILKEKAVPMIEGYMFEEHEMIRRAATECMCNLAMSKEVQDLFEAQGNDRLKLLVLYSGEDDELLQRAAAGGLAMLTSMRPTLCSRIPQVTTHWLEILQALLLSSNQELQHRGAVVVLNMVEASREIASTLMESEMMEILSVLAKGDHSPVTRAAAACLDKAVEYGLIQPNQDGE
